Experimental data as given in patent publication US12391751B2, “Antibody against advanced glycation end products and use thereof” (Bloom Technology Corporation, priority 2018, dated 2025).

Assays:
Type in all cases: binding
A-peak-BSA = A-peak-BSA (Bos taurus, UniProt P02769); experiment: Specificity of PB-1 by competitive ELISA (Example 30); conditions: A-peak-BSA or Glycer-AGEs-BSA immobilized, competitor 10 μg/mL, PB-1 0.05 μg/mL
Experimental: (§1) A-peak-BSA or Glycer-AGEs-BSA prepared into a concentration of 1 μg/mL with a coating solution (Example 13) was added at 100 μL/well to a 96-well microtiter plate (Costar) and immobilized overnight at 4° C.
(§2) The plate was washed three times with PBS containing 0.05% (v/v) Tween 20 (PBS-T) and then blocked with PBS-T containing 0.5% (w/v) gelatin for 1 hour.
(§3) Bovine serum albumin (BSA), BSA containing AGEs derived from glucose (Glu-AGEs-BSA), BSA containing AGEs derived from fructose (Fru-AGEs-BSA), BSA containing AGEs derived from glycolaldehyde (Glycol-AGEs-BSA), BSA containing AGEs derived from glyceraldehyde (Glycer-AGEs-BSA), BSA containing NE-carboxyethyllysine (CEL-AGEs-BSA), BSA containing NE-carboxymethyllysine (CML-AGEs-BSA), BSA containing AGEs derived from glyoxal (GO-AGEs-BSA), BSA containing AGEs derived from methylglyoxal (MGO-AGEs-BSA), and A-peak-BSA diluted into 10 μg/mL with PBS-T containing 0.1% (w/v) gelatin were each added at 50 μL/well to the antigen-immobilized plate, and the PB-1 antibody diluted into 0.05 μg/mL with PBS-T containing 0.1% (w/v) gelatin was further added at 50 μL/well, stirred with a plate mixer, and then left standing at room temperature for 1 hour.
(§4) After washing, peroxidase-labeled anti-mouse IgG (H+L) polyclonal antibody, F(ab′)2 fragment (Kirkegaard & Perry Laboratories, Inc.) diluted into 0.05 μg/mL with PBS-T containing 0.1% (w/v) gelatin was added at 100 μL/well and left standing at room temperature for 1 hour.
(§5) After washing, ELISA POD substrate TMB kit (Nacalai Tesque, Inc.) was added at 100 μL/well and left standing at room temperature in the dark. Ten minutes later, color development was terminated by the addition of 2 N sulfuric acid (50 μL/well). Absorbance was measured at a dominant wavelength of 450 nm and a sub-wavelength of 650 nm with a microplate reader (Cytation 5, BioTek Instrument Inc.), and the absorbance at the sub-wavelength was subtracted from the absorbance at the dominant wavelength.
(§6) The ordinate of the graph depicts change in absorbance relative to that of control BSA defined as 1. When A-peak-BSA and Glycer-AGEs-BSA were immobilized, the novel monoclonal antibody PB-1 was also positive to Glycol-AGEs-BSA, Glycer-AGEs-BSA, and A-peak-BSA and negative to Glu-AGEs-BSA, Fru-AGEs-BSA, CEL-AGEs-BSA, CML-AGEs-BSA, GO-AGEs-BSA, and MGO-AGEs-BSA in terms of specificity.

CEL-AGEs-BSA = CEL-AGEs-BSA (Bos taurus, UniProt P02769); experiment: as above; conditions: A-peak-BSA or Glycer-AGEs-BSA immobilized, competitor 10 μg/mL, PB-1 0.05 μg/mL
Experimental: as §1, §2, §3, §4, §5, §6

Fru-AGEs-BSA = Fru-AGEs-BSA (Bos taurus, UniProt P02769); experiment: as above; conditions: A-peak-BSA or Glycer-AGEs-BSA immobilized, competitor 10 μg/mL, PB-1 0.05 μg/mL
Experimental: as §1, §2, §3, §4, §5, §6

GO-AGEs-BSA = GO-AGEs-BSA (Bos taurus, UniProt P02769); experiment: as above; conditions: A-peak-BSA or Glycer-AGEs-BSA immobilized, competitor 10 μg/mL, PB-1 0.05 μg/mL
Experimental: as §1, §2, §3, §4, §5, §6

Glu-AGEs-BSA = Glu-AGEs-BSA (Bos taurus, UniProt P02769); experiment: as above; conditions: A-peak-BSA or Glycer-AGEs-BSA immobilized, competitor 10 μg/mL, PB-1 0.05 μg/mL
Experimental: as §1, §2, §3, §4, §5, §6

Glycer-AGEs-BSA = Glycer-AGEs-BSA (Bos taurus, UniProt P02769); experiment: as above; conditions: A-peak-BSA or Glycer-AGEs-BSA immobilized, competitor 10 μg/mL, PB-1 0.05 μg/mL
Experimental: as §1, §2, §3, §4, §5, §6

Glycol-AGEs-BSA = Glycol-AGEs-BSA (Bos taurus, UniProt P02769); experiment: as above; conditions: A-peak-BSA or Glycer-AGEs-BSA immobilized, competitor 10 μg/mL, PB-1 0.05 μg/mL
Experimental: as §1, §2, §3, §4, §5, §6

MGO-AGEs-BSA = MGO-AGEs-BSA (Bos taurus, UniProt P02769); experiment: as above; conditions: A-peak-BSA or Glycer-AGEs-BSA immobilized, competitor 10 μg/mL, PB-1 0.05 μg/mL
Experimental: as §1, §2, §3, §4, §5, §6

[1] = test system: protein modified with the novel structure in human serum; experiment: Western blotting of human serum protein purified with PB-1 antibody column (Example 37); conditions: PB-1 as primary antibody; versus secondary antibody only
Experimental: The solvent for the PB-1 antibody was replaced with a coupling buffer solution (0.2 M sodium carbonate, 0.5 M NaCl, pH 8.3) through a PD10 column (GE Healthcare Japan Corp.) to prepare 1 mL of a 10 mg/mL PB-1 antibody solution. The coupling support used was NHS-activated Sepharose 4 Fast Flow (GE Healthcare Japan Corp.). 10 mL of 1 mM HCl cooled in an ice bath was injected to 1 mL of NHS-activated Sepharose 4 Fast Flow, immediately thereafter mixed with the preliminarily prepared 10 mg/mL PB-1 antibody solution, and mixed by inversion (4° C., overnight) using a rotator (Taitec Corp.) so that the PB-1 antibody was immobilized to the coupling support. Then, 3 mL each of a buffer solution for blocking (0.1 M Tris-HCl, pH 8.0) and a buffer solution for washing (0.1 M sodium acetate, 0.5 M NaCl, pH 5.0) was injected thereto in order, and this operation was repeated three times. Finally, the solvent was replaced by the injection of 10 mL of PBS, followed by storage at 4° C.
The purification sample used was human serum (pool) (Cosmo Bio Co., Ltd.). […] Each fraction obtained by purification was analyzed by electrophoresis (SDS-PAGE) according to a routine method. […]

Sequence of MGO-AGEs-BSA (P02769 25-607): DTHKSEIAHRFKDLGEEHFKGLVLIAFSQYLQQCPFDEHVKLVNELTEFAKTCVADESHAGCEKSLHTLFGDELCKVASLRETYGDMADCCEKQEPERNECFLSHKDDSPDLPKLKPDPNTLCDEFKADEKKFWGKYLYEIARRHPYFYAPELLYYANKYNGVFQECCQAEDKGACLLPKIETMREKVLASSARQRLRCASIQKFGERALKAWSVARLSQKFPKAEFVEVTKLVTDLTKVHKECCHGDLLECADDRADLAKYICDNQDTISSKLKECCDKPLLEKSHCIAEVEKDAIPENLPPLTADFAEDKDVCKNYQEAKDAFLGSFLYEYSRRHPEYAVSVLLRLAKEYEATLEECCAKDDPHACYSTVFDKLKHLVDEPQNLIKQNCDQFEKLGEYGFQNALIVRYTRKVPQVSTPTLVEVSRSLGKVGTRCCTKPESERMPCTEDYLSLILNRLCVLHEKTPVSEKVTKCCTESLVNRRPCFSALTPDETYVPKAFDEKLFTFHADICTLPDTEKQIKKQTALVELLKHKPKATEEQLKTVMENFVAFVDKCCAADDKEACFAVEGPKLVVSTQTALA
Sequence of CEL-AGEs-BSA (P02769 25-607): as above
Sequence of A-peak-BSA (P02769 25-607): as above
Sequence of Glu-AGEs-BSA (P02769 25-607): as above
Sequence of Glycer-AGEs-BSA (P02769 25-607): as above
Sequence of Fru-AGEs-BSA (P02769 25-607): as above
Sequence of Glycol-AGEs-BSA (P02769 25-607): as above
Sequence of GO-AGEs-BSA (P02769 25-607): as above

B1: PB-1: mouse monoclonal antibody raised against A-peak-BSA; heavy-chain variable region SEQ ID NO 18, light-chain variable region SEQ ID NO 22 (antibody, listed as Mus musculus, V domains shown)
VH: EVRLQQSGPELVKPGTSVKISCKASGYSFTGYYMHWVKQSPVKSLEWIGRIIPYNGATSYNQNFKDKASLTVDKSSRTAYMDLHSLTSEDSAVYYCARSRYYGRAPYYFDYWGQGTTLTVSS
VL: DVVVTQTPLSLPVSLGDQASISCRSSQSIVHSNGNTYLEWYLQKPGQSPKLLIYKVSNRFSGVPDRISGSGSGTDFTLKISRVEAGDLGVYSCFQGSHVPFTFGSGTKLEIK
negative: specificity: reactivity with CEL-AGEs-BSA (CEL-AGEs-BSA) | specificity: reactivity with Fru-AGEs-BSA (Fru-AGEs-BSA) | specificity: reactivity with GO-AGEs-BSA (GO-AGEs-BSA) | specificity: reactivity with Glu-AGEs-BSA (Glu-AGEs-BSA) | specificity: reactivity with MGO-AGEs-BSA (MGO-AGEs-BSA)
positive: specificity: reactivity with A-peak-BSA (A-peak-BSA) | specificity: reactivity with Glycer-AGEs-BSA (Glycer-AGEs-BSA) | specificity: reactivity with Glycol-AGEs-BSA (Glycol-AGEs-BSA)
a band was detected: protein band detection in Western blotting [1]
